Results on ten sequences are retold here after patent US9365620B2, “Methods for treating pain” (NoNO NC., priority 2008, dated 2016).

Entries after “also recorded” stand apart in the source; their conditions may differ. Non-standard residues stand in square brackets, D forms with d. No end group written: not given here. Tle = CC(C)(C)[C@H](N)C(=O)O; Nva = CCC[C@H](N)C(=O)O

The first test has as its target N-type Ca channels (Homo sapiens, UniProt Q00975).
Assay: not given
To be noted: peptide at 10 μM. Type of test: binding.
Turning to “YGRKKRRQRRRKLSSIESDV [Tat-NR2B9c] (Synthetic peptide Tat-NR2B9c) [chimeric peptide of a standard tat peptide and …]”, the “inhibition of radiolabeled ω-Conotoxin GVIA binding to N-type Ca channels” value is 100%.

The next test addresses N-type calcium channels (Mus musculus, UniProt O55017).
Assay: not given
The class given is cell-based, Swiss mice.
Conditions: not given
Regarding “FGRKKRRQRRRALSSIESDV (synthetic 1995 peptide F-Tat-NR2B9c K to A) [Peptide 1995]”, the “Ca^2+ current shown as a percentage” value is 97+/−0.2%.

Regarding “KLSSIESDV (synthetic 1991 peptide 2B9c) [Peptide 1991, peptide 2B9c, the C-terminal portion of Tat-NR2B9c]”, the “Ca^2+ current shown as a percentage” value is given as 94+/−1.7% and the “inhibition of N-type calcium channel activity” value is on record as “no significant inhibition”.

Take YGRKKRRQRRR [Peptide 1990]: the “Ca^2+ current shown as a percentage” value is recorded as 57+/−1.6%.

For “YGRKKRRQRRRALSSIESDV (synthetic 1994 peptide Tat-NR2B9c K to A) [Peptide 1994]”, the “Ca^2+ current shown as a percentage” value is listed as 77+/−1.8% and the “inhibition of N-type calcium channel activity” value was “no significant inhibition; also recorded: some reduction in the amount of N-type calcium channel activity”.

Consider “YGRKKRRQRRRKLSSIEADA (synthetic 1992 peptide Tat-NR2B9c-AA) [Peptide 1992]”, for which the “Ca^2+ current shown as a percentage” value is on record as 74+/−2.4% and the “inhibition of N-type calcium channel activity” value is “some reduction in the amount of N-type calcium channel activity”.

Take “YGRKKRRQRRRKLSSIESDV [1987] ([dY]G[dR][dK][dK][dR][dR][dQ][dR][dR][dR][dK][dL][dS][dS][dI][dE][dS][dD][dV]) [Peptide 1987, D-isomer of Tat-NR2B9c]”: the “Ca^2+ current shown as a percentage” value is given as 82+/−2.2% and the “inhibition of N-type calcium channel activity” value is “some reduction in the amount of N-type calcium channel activity”.

Take “YGRKKRRQRRRKLSSIESDX [1976] (YGRKKRRQRRRKLSSIESD[Nva]) [Peptide 1976, …X where X=norvaline]”: the “Ca^2+ current shown as a percentage” value was 66+/−3.4%.

For the sequence “YGRKKRRQRRRKLSSIESDX [1977] (YGRKKRRQRRRKLSSIESD[Tle]) [Peptide 1977, …X where X=L-t-butyl-glycine]”, the “Ca^2+ current shown as a percentage” value is given as 65+/−5.1%.

For another test, the system named is pain hypersensitivity after peripheral nerve injury. Nature of the test: Paw withdrawal threshold (von Frey) after chronic constriction injury of the sciatic nerve. The class given is in vivo, Sprague-Dawley rats. The following applies: high dose, 10 mg/kg i.v., rats, 60, 90, 120 min; 10 mg/kg. The text has this:
In these experiments, chronic constriction injury of the sciatic nerve was induced using the polyethylene cuff method (Mosconi T, Kruger L., Pain 1996, 64: 37-57). The left sciatic nerve of adult male Sprague-Dawley rats was exposed at mid-thigh level under halothane anesthesia. A polyethylene cuff (PE90 tubing, 2 mm in length) was slit open longitudinally and implanted around the sciatic nerve, and the animals were allowed to recover for a suitable period, e.g., 10-14 days. A sterile isotonic saline solution containing dissolved Tat-NR2B9c, or a saline-only control, was injected into the tail vein, with the animal under brief halothane anesthesia. Sensitivity to pain was measured by testing the paw withdrawal threshold of animals. Paw withdrawal thresholds to mechanical stimulation were assessed using Von-Frey filaments (Stoelting Co., Wood Dale, Ill., USA). Animals were placed in plastic cages with a plastic bottom. To test the tactile threshold required to evoke withdrawal of the stimulated paw, von Frey filaments (0.008-15.18 g) were applied perpendicularly to the plantar part of the hind paw in an ascending order. Each filament was applied for 5 times, and the paw withdrawal threshold was determined when there were three positive responses out of five times a filament was applied. To avoid tissue damage, the cut off threshold was assigned as 15.18 g.
Regarding “YGRKKRRQRRRKLSSIESDV (Synthetic peptide Tat-NR2B9c) [chimeric peptide of a standard tat peptide and …]”, the “reversal of pain hypersensitivity (paw withdrawal threshold)” value is “did not result in any apparent reversal of pain hypersensitivity; also recorded: had no effect on pain hypersensitivity; also recorded: showed no effect on pain hypersensitivity”.

The same test, now with this note: low dose, 100 pmol per animal i.v., rats, day 10-14 after surgery.
With “YGRKKRRQRRRKLSSIESDV (Synthetic peptide Tat-NR2B9c) [chimeric peptide of a standard tat peptide and …]”, the “reversal of pain hypersensitivity (paw withdrawal threshold)” value was “reversed pain hypersensitivity; also recorded: showed a decrease in pain hypersensitivity”.
